Measured values: patent publication US12281340B2, “Method of producing N-acyl-amino group-containing compound” (AJINOMOTO CO., INC., priority 2018, dated 2025)

Key:
Type in all cases: biochemical
Design in all cases: key: +: Detected; −: Not detected
[1] = Synthesis of N-caprinoylamino acid using purified acylamino acid synthetase, UPLC-MS detection; settings: +ATP
Method in brief: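 Purified enzyme (50 μg) with 5 mM amino acid, 5 mM sodium caprate, 10 mM ATP, 10 mM MgCl2, 1 mM DTT in Tris-HCl pH 8.0, 24 h at 25° C; product detected by UPLC-MS (ESI-negative) as the N-caprinoyl amino acid mass signal.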

[2] = Synthesis of N-caprinoyl-amino acid derivative, N-caprinoyl-D-amino acid and N-caprinoyl-peptide using purified acylamino acid synthetase, UPLC-MS detection; settings: +ATP
Method in brief: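 Purified enzyme (50 μg/mL) was incubated with 5 mM sodium caprate, 5 mM amino acid derivative, D-amino acid or peptide, 10 mM ATP, 10 mM MgCl2 and 1 mM DTT in 50 mM Tris-HCl, pH 8.0, for 24 h at 25 °C. After acidic methanol stop, UPLC-MS looked for the mass of the N-caprinoyl product.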

[3] = Synthesis of N-acylamino acids from various fatty acids using purified acylamino acid synthetase, UPLC-MS detection
Procedure: 0.1 mL of a reaction solution containing 50 mM Tris-HCl, 5 mM amino acid, 5 mM sodium fatty acid (3 mM of sodium palmitate or sodium stearate), 10 mM ATP, 10 mM MgCl2, 1 mM DTT, 200 μg/mL of the purified enzyme, pH 8.0 was shaken at 25° C. for 24 hours. When sodium palmitate or sodium stearate was used, methanol at a final concentration of 10% (v/v) was contained in the reaction solution. As the amino acid, L-Asp was used in AtGH3-6, OsGH3-8, AtGH3-5, AtGH3-12, L-Ile was used in AtJAR1, L-Ala was used in AtGH3-10, SsGH3, L-Glu was used in AtGH3-17, Gly was used in CfHP, L-Lys was used in PsIAAL, and L-Cys was used in PaHP. After completion of the reaction, 0.4 mL of the reaction stop solution (1% (v/v) phosphoric acid, 75% (v/v) methanol) was added, and the mixture was filtrated through the filter followed by being subjected to the UPLC-MS analysis to detect a signal of a molecular weight corresponding to the N-acylamino acid.
The condition for the UPLC-MS analysis is as follows.
Apparatus: ACQUITY UPLC (Waters)
Column: ACQUITY UPLC BEH C18 1.7 μm 2.1×100 mm Column (Waters), mobile phase A: 0.1% formic acid; mobile phase B: acetonitrile
• Flow rate: 0.6 mL/minute • Injection amount: 2 μL • Column temperature: 40° C. • Ionization method: ESI-negative
As a result of the UPLC-MS analysis, the signal of the molecular weight corresponding to the appropriate N-acylamino acid was confirmed in the reaction solution containing the enzyme in combination with sodium fatty acid shown in Table 7 below.

B1: AtGH3-17: indole-3-acetic acid-amido synthetase GH3.17 from Arabidopsis thaliana, His-tagged (protein, listed as Arabidopsis thaliana)
chain: MIPSYDPNDTEAGLKLLEDLTTNAEAIQQQVLHQILSQNSGTQYLRAFLDGEADKNQQSFKNKVPVVNYDDVKPFIQRIADGESSDIVSAQPITELLTSSGTSAGKPKLMPSTAEELERKTFFYSMLVPIMNKYVDGLDEGKGMYLLFIKPEIKTPSGLMARPVLTSYYKSQHFRNRPFNKYNVYTSPDQTILCQDSKQSMYCQLLCGLVQRSHVLRVGAVFASAFLRAVKFLEDHYKELCADIRTGTVTSWITDSSCRDSVLSILNGPNQELADEIESECAEKSWEGILRRIWPKAKYVEVIVTGSMAQYIPTLEFYSGGLPLVSTMYASSECYFGINLNPLCDPADVSYTLLPNMAYFEFLPVDDKSHEEIHFATHSNTDDDDDALKEDLIVNLVNVEVGQYYEIVITTFTGLYRYRVGDILKVTGFHNKAPQFRFVQRRNVVLSIDTDKTSEEDLLNAVTQAKLNHLQHPSSLLLTEYTSYADTSSIPGHYVLFWELKPRHSNDPPKLDDKTMEDCCSEVEDCLDYVYRRCRNRDKSIGPLEIRVVSLGTFDSLMDFCVSQGSSLNQYKTPRCVKSGGALEILDSRVIGRFFSKRVPQWEPLGLDS
modifications: His-tag
notes: indole-3-acetic acid-amido synthetase GH3.17 from Arabidopsis thaliana, His-tagged
signal of molecular weight corresponding to N-caprinoyl amino acid ([1]; substrates GABA and sodium caprate): +
signal of molecular weight corresponding to N-caprinoyl amino acid ([1]; substrates Gly and sodium caprate): +
signal of molecular weight corresponding to N-caprinoyl amino acid ([1]; substrates L-Ala and sodium caprate): +
signal of molecular weight corresponding to N-caprinoyl amino acid ([1]; substrates L-Arg and sodium caprate): −
signal of molecular weight corresponding to N-caprinoyl amino acid ([1]; substrates L-Asn and sodium caprate): +
signal of molecular weight corresponding to N-caprinoyl amino acid ([1]; substrates L-Asp and sodium caprate): +
signal of molecular weight corresponding to N-caprinoyl amino acid ([1]; substrates L-Cys and sodium caprate): +
signal of molecular weight corresponding to N-caprinoyl amino acid ([1]; substrates L-Gln and sodium caprate): +
signal of molecular weight corresponding to N-caprinoyl amino acid ([1]; substrates L-Glu and sodium caprate): +
signal of molecular weight corresponding to N-caprinoyl amino acid ([1]; substrates L-His and sodium caprate): −
signal of molecular weight corresponding to N-caprinoyl amino acid ([1]; substrates L-Ile and sodium caprate): +
signal of molecular weight corresponding to N-caprinoyl amino acid ([1]; substrates L-Leu and sodium caprate): +
signal of molecular weight corresponding to N-caprinoyl amino acid ([1]; substrates L-Lys and sodium caprate): −
signal of molecular weight corresponding to N-caprinoyl amino acid ([1]; substrates L-Met and sodium caprate): +
signal of molecular weight corresponding to N-caprinoyl amino acid ([1]; substrates L-Phe and sodium caprate): +
signal of molecular weight corresponding to N-caprinoyl amino acid ([1]; substrates L-Pro and sodium caprate): −
signal of molecular weight corresponding to N-caprinoyl amino acid ([1]; substrates L-Ser and sodium caprate): +
signal of molecular weight corresponding to N-caprinoyl amino acid ([1]; substrates L-Thr and sodium caprate): +
signal of molecular weight corresponding to N-caprinoyl amino acid ([1]; substrates L-Trp and sodium caprate): +
signal of molecular weight corresponding to N-caprinoyl amino acid ([1]; substrates L-Tyr and sodium caprate): +
signal of molecular weight corresponding to N-caprinoyl amino acid ([1]; substrates L-Val and sodium caprate): +
signal of molecular weight corresponding to N-caprinoyl amino acid ([1]; substrates β-Ala and sodium caprate): +
signal of molecular weight corresponding to N-caprinoyl compound ([2]; substrates Carnosine and sodium caprate): −
signal of molecular weight corresponding to N-caprinoyl compound ([2]; substrates D-Ala and sodium caprate): −
signal of molecular weight corresponding to N-caprinoyl compound ([2]; substrates D-Asp and sodium caprate): +
signal of molecular weight corresponding to N-caprinoyl compound ([2]; substrates D-Cys and sodium caprate): −
signal of molecular weight corresponding to N-caprinoyl compound ([2]; substrates D-Glu and sodium caprate): +
signal of molecular weight corresponding to N-caprinoyl compound ([2]; substrates D-Ile and sodium caprate): +
signal of molecular weight corresponding to N-caprinoyl compound ([2]; substrates D-Lys and sodium caprate): −
signal of molecular weight corresponding to N-caprinoyl compound ([2]; substrates L-Asp-L-Phe and sodium caprate): −
signal of molecular weight corresponding to N-caprinoyl compound ([2]; substrates L-Gly-L-Gly and sodium caprate): +
signal of molecular weight corresponding to N-caprinoyl compound ([2]; substrates Sarcosine and sodium caprate): −
signal of molecular weight corresponding to N-caprinoyl compound ([2]; substrates Taurine and sodium caprate): +
signal of molecular weight corresponding to N-acylamino acid ([3]; substrates L-Cys and Capric acid): +
signal of molecular weight corresponding to N-acylamino acid ([3]; substrates L-Cys and Caproic acid): +
signal of molecular weight corresponding to N-acylamino acid ([3]; substrates L-Cys and Caprylic acid): +
signal of molecular weight corresponding to N-acylamino acid ([3]; substrates L-Cys and Lauric acid): +
signal of molecular weight corresponding to N-acylamino acid ([3]; substrates L-Cys and Linoleic acid): −
signal of molecular weight corresponding to N-acylamino acid ([3]; substrates L-Cys and Palmitic acid): −
signal of molecular weight corresponding to N-acylamino acid ([3]; substrates L-Cys and myristic acid): −
signal of molecular weight corresponding to N-acylamino acid ([3]; substrates L-Glu and Capric acid): +
signal of molecular weight corresponding to N-acylamino acid ([3]; substrates L-Glu and Caproic acid): +
signal of molecular weight corresponding to N-acylamino acid ([3]; substrates L-Glu and Caprylic acid): +
signal of molecular weight corresponding to N-acylamino acid ([3]; substrates L-Glu and Lauric acid): +
signal of molecular weight corresponding to N-acylamino acid ([3]; substrates L-Glu and Linoleic acid): −
signal of molecular weight corresponding to N-acylamino acid ([3]; substrates L-Glu and Palmitic acid): +
signal of molecular weight corresponding to N-acylamino acid ([3]; substrates L-Glu and myristic acid): +
